{"source": "paper PMC11933844", "about": "“Autosuppression of MdNAC18.1 endowed by a 61‐bp promoter fragment duplication delays maturity date in apple”", "binders": {"B1": {"name": "MdACO1-like promoter probe NACBS1 (dsDNA)", "DNA 1": "TCAAGTACCATAACTACACGTAACTTGCAAAGTTCC", "DNA 2": "GGAACTTTGCAAGTTACGTGTAGTTATGGTACTTGA"}, "B2": {"name": "MdMYC2 promoter probe NACBS1 (dsDNA)", "DNA 1": "TCTGGGATCCTGGTTTCACGGGTTTTCGAGGTTTTC", "DNA 2": "GAAAACCTCGAAAACCCGTGAAACCAGGATCCCAGA"}, "B3": {"name": "MdACS1 promoter probe mutant (dsDNA)", "DNA 1": "GTACACTTATAATAAAAAAACAAGTTTGTAGGTAAT", "DNA 2": "ATTACCTACAAACTTGTTTTTTTATTATAAGTGTAC"}, "B4": {"name": "MdNAC18.1 P promoter probe mutant (dsDNA)", "DNA 1": "GACATACAATGTTCTGATTCGTATGAGATAACTTAA", "DNA 2": "TTAAGTTATCTCATACGAATCAGAACATTGTATGTC"}, "B5": {"name": "MdACO1-like promoter probe mutant (dsDNA)", "DNA 1": "B1 DNA 1 with T15A, C17A, C19A, G20A", "DNA 2": "B1 DNA 2 with C17T, G18T, G20T, A22T"}, "B6": {"name": "MdACS1 promoter probe NACBS5 (dsDNA)", "DNA 1": "GTACACTTATAATCCCCACGCAAGTTTGTAGGTAAT", "DNA 2": "ATTACCTACAAACTTGCGTGGGGATTATAAGTGTAC"}, "B7": {"name": "MdNAC18.1 P promoter probe (CTAAC) (dsDNA)", "DNA 1": "GACATACAATGTTCTGATTCGTATTCTAACACTTAA", "DNA 2": "TTAAGTGTTAGAATACGAATCAGAACATTGTATGTC"}, "B8": {"name": "MdNAC72 promoter probe NACBS1 (dsDNA)", "DNA 1": "TATTGACCCACATTTGCACGTAGCCTTGTAAACTTG", "DNA 2": "CAAGTTTACAAGGCTACGTGCAAATGTGGGTCAATA"}}, "note": "Residue numbers refer to the chain shown, from its start."}
{"molecular_target": "T1, MdNAC72 (UniProt A0A498KB81 69-407)", "T1 sequence": "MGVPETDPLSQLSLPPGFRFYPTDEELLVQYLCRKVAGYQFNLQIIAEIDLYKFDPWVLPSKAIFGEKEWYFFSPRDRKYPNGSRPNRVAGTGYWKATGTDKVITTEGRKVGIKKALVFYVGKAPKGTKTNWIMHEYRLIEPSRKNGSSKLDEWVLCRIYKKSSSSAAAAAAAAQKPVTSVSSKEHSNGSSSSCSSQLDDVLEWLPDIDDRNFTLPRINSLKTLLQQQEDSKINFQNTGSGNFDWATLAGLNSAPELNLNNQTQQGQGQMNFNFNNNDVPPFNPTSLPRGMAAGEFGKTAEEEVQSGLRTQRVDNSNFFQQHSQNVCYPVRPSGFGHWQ", "assay": "EMSA; Beyotime Chemiluminescent EMSA Kit GS009; buffer, salt, pH and temperature not stated", "details": "protein: recombinant; tags: His (pET32A); chain copies: 2; label: 3' biotin; blunt"}
{"binder": "B1", "binding result": "binds"}
{"molecular_target": "MdNAC18.1 (UniProt A0A498K6T8 1-364)", "sequence (A0A498K6T8 entry or part of it)": "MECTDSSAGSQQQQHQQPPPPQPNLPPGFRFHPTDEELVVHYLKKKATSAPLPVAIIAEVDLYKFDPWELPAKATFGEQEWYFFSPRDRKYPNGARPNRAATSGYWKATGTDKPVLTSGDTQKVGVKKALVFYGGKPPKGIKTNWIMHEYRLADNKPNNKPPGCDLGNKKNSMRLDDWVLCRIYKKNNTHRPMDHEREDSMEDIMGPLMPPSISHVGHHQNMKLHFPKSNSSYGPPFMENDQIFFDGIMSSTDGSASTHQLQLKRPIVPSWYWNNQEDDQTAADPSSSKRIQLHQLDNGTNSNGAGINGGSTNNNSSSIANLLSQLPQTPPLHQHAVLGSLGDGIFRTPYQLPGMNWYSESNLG", "assay": "EMSA; Beyotime Chemiluminescent EMSA Kit GS009; buffer, salt, pH and temperature not stated", "details": "protein: recombinant; tags: His (pET32A); chain copies: 2; blunt"}
{"binder": "B2", "binding result": "binds"}
{"binder": "B3", "binding result": "no binding"}
{"binder": "B4", "binding result": "no binding"}
{"binder": "B5", "binding result": "no binding"}
{"molecular_target": "MdNAC18.1 (UniProt A0A498K6T8 1-364)", "assay": "EMSA; Beyotime Chemiluminescent EMSA Kit GS009; buffer, salt, pH and temperature not stated", "details": "protein: recombinant; tags: His (pET32A); chain copies: 2; label: 3' biotin; blunt"}
{"binder": "B6", "binding result": "binds"}
{"binder": "B7", "binding result": "binds"}
{"binder": "B1", "binding result": "binds"}
{"binder": "B8", "binding result": "binds"}
